# B1: CPEB3 Ribozyme (parent)
# chain: GGGGGCCACAGCAGAAGCGUUCACGUCGCGGCCCCUGUCAGAUUCUGGUGAAUCUGCGAAUUCUGCUGU
# Variants of: B1
# Assay: self-cleavage, relative activity (ratio to wild type); higher = more cleavage; co-transcriptional
row,Variant,self-cleavage
1,G25U C54A,0.125
2,G25U C54G,0.115
3,G25U C54U,0.121
4,G25U C57A,0.137
5,G25U C57G,0.151
6,G25U C57U,0.15
7,G25U C63A,0.129
8,G25U C63U,0.173
9,G25U C66U,0.121
10,G25U G28A,0.141
11,G25U G28C,0.159
12,G25U G30A,0.16
13,G25U G30C,0.14
14,G25U G31A,0.163
15,G25U G31C,0.191
16,G25U G31U,0.182
17,G25U G37C,0.0933
18,G25U G41A,0.112
19,G25U G47C,0.11
20,G25U G48A,0.176
21,G25U G48C,0.215
22,G25U G48U,0.155
23,G25U G50A,0.144
24,G25U G50C,0.189

row,Variant,self-cleavage
1,G25U G50U,0.151
2,G25U G58A,0.214
3,G25U G58C,0.107
4,G25U G65C,0.105
5,G25U G68C,0.225
6,G25U G68U,0.159
7,G25U U26A,0.273
8,G25U U26C,0.631
9,G25U U36A,0.125
10,G25U U36C,0.103
11,G25U U38G,0.205
12,G25U U44A,0.136
13,G25U U44C,0.105
14,G25U U44G,0.146
15,G25U U46A,0.105
16,G25U U46C,0.179
17,G25U U46G,0.205
18,G25U U49C,0.157
19,G25U U49G,0.189
20,G25U U53A,0.166
21,G25U U53C,0.112
22,G25U U53G,0.226
23,G25U U55A,0.154
24,G25U U55G,0.146

row,Variant,self-cleavage
1,G25U U61G,0.149
2,G25U U62C,0.193
3,G25U U64A,0.132
4,G25U U64C,0.103
5,G25U U67A,0.145
6,G25U U67C,0.212
7,G25U U67G,0.237
8,G25U U69C,0.263
9,G25U U69G,0.183
10,U26A,0.907
11,U26A A40C,0.32
12,U26A A40G,0.7
13,U26A A42C,0.797
14,U26A A42G,0.72
15,U26A A51U,0.813
16,U26A A52C,0.9
17,U26A A52G,0.825
18,U26A A52U,0.816
19,U26A A59G,0.923
20,U26A A59U,0.404
21,U26A A60G,0.478
22,U26A A60U,0.377
23,U26A C27G,0.121
24,U26A C27U,0.429

row,Variant,self-cleavage
1,U26A C29G,0.307
2,U26A C32A,0.422
3,U26A C32G,0.231
4,U26A C32U,0.869
5,U26A C33G,0.395
6,U26A C34G,0.501
7,U26A C34U,0.93
8,U26A C35A,0.228
9,U26A C35U,0.644
10,U26A C54U,0.909
11,U26A C57G,0.216
12,U26A C57U,0.39
13,U26A C63A,0.51
14,U26A C66A,0.637
15,U26A C66G,0.635
16,U26A C66U,0.946
17,U26A G28A,0.216
18,U26A G28C,0.114
19,U26A G30A,0.36
20,U26A G31A,0.511
21,U26A G37A,0.287
22,U26A G37C,0.209
23,U26A G37U,0.222
24,U26A G41C,0.54

row,Variant,self-cleavage
1,U26A G47A,0.88
2,U26A G47U,0.932
3,U26A G48A,0.846
4,U26A G48C,0.882
5,U26A G50A,0.871
6,U26A G50C,0.95
7,U26A G56C,0.357
8,U26A G56U,0.752
9,U26A G65A,0.736
10,U26A G68A,0.941
11,U26A U36A,0.15
12,U26A U36C,0.403
13,U26A U36G,0.145
14,U26A U38A,0.423
15,U26A U38C,0.419
16,U26A U38G,0.244
17,U26A U43C,0.802
18,U26A U43G,0.707
19,U26A U44A,0.843
20,U26A U44G,0.85
21,U26A U46A,0.906
22,U26A U46G,0.895
23,U26A U53A,0.806
24,U26A U53C,0.724

row,Variant,self-cleavage
1,U26A U53G,0.647
2,U26A U55C,0.712
3,U26A U55G,0.44
4,U26A U61C,0.403
5,U26A U61G,0.559
6,U26A U62A,0.671
7,U26A U64A,0.628
8,U26A U64G,0.719
9,U26A U67C,0.868
10,U26A U67G,0.858
11,U26A U69C,1.04
12,U26A U69G,0.977
13,U26C,0.993
14,U26C A40C,0.455
15,U26C A40G,0.949
16,U26C A40U,0.733
17,U26C A42C,1.01
18,U26C A42U,0.964
19,U26C A51C,0.972
20,U26C A51G,0.928
21,U26C A51U,0.982
22,U26C A52C,0.995
23,U26C A52G,1.01
24,U26C A52U,0.989

row,Variant,self-cleavage
1,U26C A59C,0.59
2,U26C A59G,1.05
3,U26C A59U,0.677
4,U26C A60C,0.233
5,U26C A60U,0.337
6,U26C C29A,0.414
7,U26C C29G,0.345
8,U26C C29U,0.135
9,U26C C32G,0.365
10,U26C C33A,0.826
11,U26C C33G,0.474
12,U26C C34G,0.492
13,U26C C35G,0.375
14,U26C C35U,0.964
15,U26C C39G,0.939
16,U26C C39U,0.85
17,U26C C45U,0.953
18,U26C C54A,0.92
19,U26C C54G,0.871
20,U26C C54U,1.03
21,U26C C57A,0.209
22,U26C C57G,0.268
23,U26C C63A,0.614
